Laboratory results from FireProtDB (doi:10.1093/protein/15.6.455).

Conditions: pH 3.6, Thermal, DSC, sodium acetate 50 mM, reversible: yes, whole UniProt chain shown; for heat capacity change of unfolding / unfolding enthalpy (calorimetric): 62.6 °C
[1] = Hydrogenobacter thermophilus (strain DSM 6534 / IAM 12695 / TK-6)
[2] = Pseudomonas aeruginosa (strain ATCC 15692 / DSM 22644 / CIP 104116 / JCM 14847 / LMG 12228 / 1C / PRS 101 / PAO1)

Row | Protein | heat capacity change of unfolding [1] [kcal/mol/K] | unfolding enthalpy (calorimetric) [1] [kcal/mol] | Tm [1] [°C] | heat capacity change of unfolding [2] [kcal/mol/K] | unfolding enthalpy (calorimetric) [2] [kcal/mol] | Tm [2] [°C]
1 | Cytochrome c-552 wild type, P15452 (protein) MKKFLLVAVVGLAGITFANEQLAKQKGCMACHDLKAKKVGPAYADVAKKYAGRKDAVDYLAGKIKKGGSGVWGSVPMPPQNVTDAEAKQLAQWILSIK | 0.54 | 69.5 | 94 | – | – | –
2 | Cytochrome c-551 wild type, P00099 (protein) MKPYALLSLLATGTLLAQGAWAEDPEVLFKNKGCVACHAIDTKMVGPAYKDVAAKFAGQAGAEAELAQRIKNGSQGVWGPIPMPPNAVSDDEAQTLAKWVLSQK | – | – | – | 0.72 | 60.8 | 62.6
